One test relates to corneal angiogenesis. Put plainly: Corneal pocket angiogenesis assay. Format: in vivo, Sprague-Dawley rats. The conditions noted are these: rat, pellet with 200 ng growth factor, day 6, FIGS. 15A and 15B. As for the experimental part: Assays were performed as described by Polyerini et al., Methods Enzymol., 198:440–450 (1991) with the following modifications. Sprague-Dawley rats were anesthetized using a gas (isoflurane)/injectable ketamine (80 mg/kg)/xylazine (15 mg/kg) combination. The eyes were gently proptosed and secured in place using nontraumatic forceps. With a #15 blade, a 1.5 mm incision was made slightly below the center of the cornea. Using a micro spatula (ST80017, ASSI), the incision was carefully blunt-dissected through the stroma toward the outer canthus of the eye. […] After surgery, the eyes were coated with gentamicin ointment. At day 6, the animals were injected with high molecular weight FITC-dextran and euthanized to allow for visualization of the vasculature. Corneal whole mounts were made of the enucleated eyes and measurements of the neovascular area completed using computer-assisted image analysis (Image-Pro Plus).

Test [1] deals with T1, KDR receptor (soluble radio-immuno receptor-binding assay) (UniProt P35968 20-764, limits assumed).
T1 construct: the receptor construct is not described
The experiment in a line: soluble radio-immuno receptor-binding assay (RIA). As for the experimental part:
For example, quantitative binding measurements were carried out using a soluble radio-immuno receptor-binding assay (RIA), as described in Example 6 above.

The subject of test [2] is ERK1 and ERK2 in HUVEC cells. Put plainly: Activation of MAP kinases, ERK1/ERK2 phosphorylation Western blot. Format: cell-based, human. Conditions: 50 ng/ml or 10 ng/ml, 5 minutes, FIG. 12A. Here is the method:
Passage 4–7 HUVEC cells (Cell Systems, Kirkland, Wash.) were grown in Cell System's complete medium (AZ0-500) with 10% fetal calf serum and growth factors on gelatin-coated dishes and made quiescent by 14 hour starvation in 0.2% serum. […] The HUVEC cells were then lysed in 0.5–1 ml RIPA buffer containing 0.1 mM sodium orthovanadate, 5 mM para-nitrophenylphosphate, 10 mM sodium fluoride, 0.5 micromolar okadaic acid and a protease inhibitor cocktail (Roche MB 1836145). Western blot analysis was then conducted, probing for phosphorylated ERK1 or ERK2 using anti-phospho ERK antiserum (Promega).

The next test has as its system PLC-gamma in HUVEC cells. The experiment in a line: PLC-gamma tyrosine phosphorylation after immunoprecipitation. Format: cell-based, human. Conditions: 20 ng/ml, 5 minutes, FIG. 13A. As for the experimental part: In order to determine which VEGF receptor(s) are involved in PLC-gamma activation in primary endothelial cells, HUVEC cells were treated with native VEGF or VEGF receptor-selective variants and PLC-gamma phosphorylation was assessed after immunoprecipitation.
Passage 4–7 HUVEC cells (Cell Systems, Kirkland, Wash.) were grown in Cell System's complete medium (AZ0-500) with 10% fetal calf serum and growth factors on gelatin-coated dishes and made quiescent by 14 hour starvation in 0.2% serum. […] The cells were then lysed in 0.5–1 ml RIPA buffer containing 0.1 mM sodium orthovanadate, 5 mM para-nitrophenylphosphate, 10 mM sodium fluoride, 0.5 micromolar okadaic acid and a protease inhibitor cocktail (Roche MB 1836145). PLC-gamma was then immunoprecipitated from whole cell lysates using monoclonal antibodies (Upstate Biotechnology) and analyzed for tyrosine phosphorylation (FIG. 13A) or lysates were immunoprecipitated with monoclonal antibodies against p85 PI 3′-kinase (purchased from Transduction Labs (P13020) and Neomarkers (MS424-P)) and tested for phosphotyrosine using phosphotyrosine antibodies PY20 or E120H (Transduction Labs) (FIG. 13B). Immunoprecipitation was conducted as follows. Protein A/G beads (Pierce) were blocked for nonspecific protein binding in 50 mM HEPES pH 7.2, 0.1% TX-100, 150 mM NaCl and 1 mg/ml ovalbumin for 30 minutes. Antibodies were precoupled in the same buffer for 1 hour at 4° C. with head over end rotation and beads were washed 3 times in lysis buffer. Beads were added to the lysates and rotated overnight. Beads were washed sequentially in 50 mM Tris pH 7.6, 150 mM NaCl, 1% TX-100, 1 mM CaCl2; 50 mM Tris pH 7.6, 500 mM NaCl, 0.1% TX-100, 1 mM CaCl2 and 50 mM Tris pH 7.6, 150 mM NaCl, 0.05% TX-100, 1 mM CaCl2. Beads were then resuspended in 2× sample buffer and boiled. Supernatants were applied directly to 4–12% Tris-Glycine gradient gels (Novex).

In the next test the test system is HUVEC cells. The experiment in a line: HUVEC migration, modified Boyden chamber assay. Conditions: 18 hour assay, FIG. 14A. Format: cell-based, human. Here is the method: One of the central aspects of VEGF action on endothelial cells is its ability to act as a chemoattractant and stimulate the migration of endothelial cells. HUVEC cell migration was analyzed in a modified Boyden chamber assay as follows.
Falcon 8.0 micron filter inserts (Falcon 3097) were coated with type 1 collagen (VITROGEN, COHESION). HUVEC (obtained from Cell Systems, <passage 8) were grown in Cell Systems complete media (4ZO-500) with 10% FCS. Cells were trypsinized and transferred to EBM (Endothelial basal media, Clonetics) with 0.1% BSA for the assay. Cells were plated at 5×10^4 per upper chamber. […] The assay was routinely an 18 hour assay at 37° C. For the LY294002 inhibitor experiments, cells were allowed to adhere for 30 minutes prior to addition of the inhibitor. 20 minutes after inhibitor addition, VEGF was added to the bottom well and the assay was allowed to proceed for only 4 hours to avoid the occurrence of apoptosis associated with the treatment of these primary cells with LY294002 (purchased from Biomol).
Cells were removed from the upper side of the membrane by scraping with a polyurethane swab and then the remaining cells on the bottom side of the membrane were fixed with methanol. Cells were stained with Yo-Pro Iodide nuclear stain (Molecular Probes) and counted under low power fluorescence using an Image-Pro cell recognition program.

The target of the next test is T2, Flt-IgG (UniProt P17948 27-758, limits assumed).
T2 construct: also called chimeric Flt-human Fc molecule; not shown: human IgG Fc
The experiment in a line: competition ELISA vs biotinylated native VEGF for Flt-IgG. As for the experimental part:
(§1) Receptor binding assays were performed in 96-well immunoplates (Maxisorp, Nunc-Immunoplate, Nalge Nunc International, Rochester, N.Y.). Each well was coated with 100 μl of a solution containing 2 μg/ml of rabbit F(ab')2 to human IgG Fc (Jackson ImmunoResearch, West Grove, Pa.) in 50 mM carbonate buffer at pH 9.6 and incubated at 4° C. overnight. The supernatant was then discarded, the wells were washed three times in washing buffer (0.05% Tween 20 in PBS), and the plate was blocked (150 μl per well) with block buffer (0.5% BSA, 0.01% thimerosal in PBS) at room temperature for one hour. The supernatant was discarded, and the wells were washed.
The wells were filled with 100 μl of a solution containing Flt-IgG (a chimeric Flt-human Fc molecule) at 50 ng/ml in assay buffer (0.5% BSA, 0.05% Tween 20 in PBS). The wells were incubated at room temperature for 1 hour and then washed three times in wash buffer (0.05% Tween 20 in PBS).
Aliquots of the mixture (100 μl) were added to the precoated microtiter wells and the plate was incubated for 2 hours at room temperature. […] The wells were then incubated with 3, 3', 5,5'-tetramethyl benzidine (0.2 g/liter, Kirkegaard & Perry Laboratories, Gaithersburg, Md.) for about 10 minutes at room temperature. Absorbance was read at 450 nm on a Vmax plate reader (Molecular Devices, Menlo Park, Calif.).

Another test deals with Flt-1 receptor. Put plainly: RIA assay, binding to FLT-1 receptor. The conditions noted are these: relative to native VEGF 165 = 1. As for the experimental part:
Various assays were conducted to examine the properties and biological activities of the I43A/I46A/Q79A/I83A Flt-sel variant. For example, quantitative binding measurements were carried out using a soluble radio-immuno receptor-binding assay (RIA), as described in Example 6 above.

The target in test [3] is T1, KDR receptor (soluble radio-immuno …). Put plainly: RIA (essentially as Muller et al. 1997).
Test [4] has as its target T3, FLT-1 receptor (soluble radio-immuno receptor-binding assay) (UniProt P17948 27-758, limits assumed).
T3 construct: the receptor construct is not described
Put plainly: RIA (essentially as Muller et al. 1997).

For the next test, the target named is T4, KDR (1-3) (UniProt P35968 20-327, limits assumed).
T4 construct: domain: domains 1 to 3; Genentech reagent; also called KDR (1-3) monomer; domains 1 to 3 of KDR
The experiment in a line: competition ELISA vs biotinylated native VEGF (8-109) for KDR (1-3). Here is the method:
as §1, with “containing 8” for “containing 2”, “of a monoclonal antibody” for “of rabbit F(ab')2”, “to KDR known as MAKD5 (Genentech, South San Francisco, Calif.)” for “to human IgG Fc (Jackson ImmunoResearch, West Grove, Pa.)”, “was” for “was then”
Aliquots of this mixture (100 μl) were added to the precoated microtiter wells and the plate was incubated for 1 hour at room temperature. […] The wells were then incubated with 3, 3', 5,5'-tetramethyl benzidine (0.2 gram/liter; Kirkegaard & Perry Laboratories, Gaithersburg, Md.) for about 10 minutes at room temperature. Absorbance was read at 450 nm on a Vmax plate reader (Molecular Devices, Menlo Park, Calif.).
(§2) Titration curves were fit with a four-parameter nonlinear regression curve-fitting program (KaleidaGraph, Synergy Software, Reading, Pa.).
(In general: An ELISA detects its analyte on a solid surface through an enzyme-linked reagent.)

In test [5] the target is KDR receptor on HUVEC cells (human, UniProt P35968 20-1356). The experiment in a line: cell-based or functional assay.
In test [6] the target is gD-KDR receptor on CHO cells (UniProt P35968 20-1356). Put plainly: cell-based or functional assay.
In the next test the target is KDR receptor (Homo sapiens, UniProt P35968). Put plainly: KDR receptor binding ELISA (inhibition of biotinylated native VEGF (8–109) binding). The conditions noted are these: second figure of the cell, variant midpoint concentration divided by that of native VEGF. Here is the method: as §1, with “containing 8” for “containing 2”, “of a monoclonal antibody” for “of rabbit F(ab')2”, “to KDR known as MAKD5 (Genentech, South San Francisco, Calif.)” for “to human IgG Fc (Jackson ImmunoResearch, West Grove, Pa.)”, “was” for “was then”
Aliquots of this mixture (100 μl) were added to the precoated microtiter wells and the plate was incubated for 1 hour at room temperature. […] The wells were then incubated with 3, 3′, 5,5′-tetramethyl benzidine (0.2 gram/liter; Kirkegaard & Perry Laboratories, Gaithersburg, Md.) for about 10 minutes at room temperature. Absorbance was read at 450 nm on a Vmax plate reader (Molecular Devices, Menlo Park, Calif.).
as §2

Bounds are passed on as bounds.

T1 sequence (P35968 20-764 limits assumed): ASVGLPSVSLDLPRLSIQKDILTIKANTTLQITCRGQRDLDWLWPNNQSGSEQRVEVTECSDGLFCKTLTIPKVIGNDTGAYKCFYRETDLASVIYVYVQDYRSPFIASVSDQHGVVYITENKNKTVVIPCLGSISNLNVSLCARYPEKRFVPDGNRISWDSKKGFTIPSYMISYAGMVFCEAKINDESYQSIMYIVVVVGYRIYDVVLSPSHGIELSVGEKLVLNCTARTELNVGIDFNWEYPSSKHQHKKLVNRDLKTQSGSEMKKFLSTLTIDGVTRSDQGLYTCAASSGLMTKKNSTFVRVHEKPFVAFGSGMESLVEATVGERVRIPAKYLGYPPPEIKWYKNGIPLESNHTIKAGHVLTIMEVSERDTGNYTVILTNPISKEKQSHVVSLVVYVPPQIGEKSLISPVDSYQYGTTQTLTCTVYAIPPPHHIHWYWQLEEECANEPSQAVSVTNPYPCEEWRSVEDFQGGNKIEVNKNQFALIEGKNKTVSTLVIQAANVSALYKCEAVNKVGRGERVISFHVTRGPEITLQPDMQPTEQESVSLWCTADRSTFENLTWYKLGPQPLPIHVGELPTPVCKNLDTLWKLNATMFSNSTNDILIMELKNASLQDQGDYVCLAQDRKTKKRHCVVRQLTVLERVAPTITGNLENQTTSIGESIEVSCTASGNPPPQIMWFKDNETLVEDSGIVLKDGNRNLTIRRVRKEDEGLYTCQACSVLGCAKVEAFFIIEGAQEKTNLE
KDR receptor on HUVEC cells, sequence (P35968 20-1356): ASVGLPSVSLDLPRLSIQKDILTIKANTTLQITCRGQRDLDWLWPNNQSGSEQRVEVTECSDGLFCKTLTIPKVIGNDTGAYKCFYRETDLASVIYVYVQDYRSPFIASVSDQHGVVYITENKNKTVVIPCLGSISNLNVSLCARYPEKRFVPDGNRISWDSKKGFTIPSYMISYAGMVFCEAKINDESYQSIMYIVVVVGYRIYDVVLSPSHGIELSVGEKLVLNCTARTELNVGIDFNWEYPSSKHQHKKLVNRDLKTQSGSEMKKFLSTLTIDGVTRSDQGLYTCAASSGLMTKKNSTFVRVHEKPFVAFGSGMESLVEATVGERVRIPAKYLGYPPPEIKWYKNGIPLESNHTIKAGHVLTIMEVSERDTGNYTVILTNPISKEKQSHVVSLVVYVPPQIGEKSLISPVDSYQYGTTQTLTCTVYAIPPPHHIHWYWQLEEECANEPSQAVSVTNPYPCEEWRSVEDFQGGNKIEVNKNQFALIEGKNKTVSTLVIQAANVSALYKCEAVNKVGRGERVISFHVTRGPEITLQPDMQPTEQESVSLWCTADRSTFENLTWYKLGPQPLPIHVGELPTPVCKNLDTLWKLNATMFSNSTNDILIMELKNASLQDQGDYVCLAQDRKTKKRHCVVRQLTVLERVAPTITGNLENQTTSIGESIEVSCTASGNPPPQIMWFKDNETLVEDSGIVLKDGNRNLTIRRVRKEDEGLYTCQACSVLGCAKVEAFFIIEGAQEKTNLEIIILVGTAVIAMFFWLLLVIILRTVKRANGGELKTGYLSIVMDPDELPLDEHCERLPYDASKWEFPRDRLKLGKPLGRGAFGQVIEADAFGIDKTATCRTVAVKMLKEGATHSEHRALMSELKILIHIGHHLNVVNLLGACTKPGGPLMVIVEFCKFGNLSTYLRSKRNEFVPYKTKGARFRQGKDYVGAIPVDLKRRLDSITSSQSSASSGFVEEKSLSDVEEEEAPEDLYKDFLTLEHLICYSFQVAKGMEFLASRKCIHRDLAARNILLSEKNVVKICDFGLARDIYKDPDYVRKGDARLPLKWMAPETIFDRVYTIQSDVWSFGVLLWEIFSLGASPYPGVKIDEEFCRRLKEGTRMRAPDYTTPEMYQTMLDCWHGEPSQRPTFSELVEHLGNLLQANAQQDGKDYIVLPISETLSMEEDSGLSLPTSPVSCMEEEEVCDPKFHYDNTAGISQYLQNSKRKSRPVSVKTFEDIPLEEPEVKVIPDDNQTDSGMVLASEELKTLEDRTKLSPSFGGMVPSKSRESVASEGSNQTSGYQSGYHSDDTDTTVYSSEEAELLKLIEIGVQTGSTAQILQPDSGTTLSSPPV
KDR receptor, sequence (P35968 20-327 limits assumed): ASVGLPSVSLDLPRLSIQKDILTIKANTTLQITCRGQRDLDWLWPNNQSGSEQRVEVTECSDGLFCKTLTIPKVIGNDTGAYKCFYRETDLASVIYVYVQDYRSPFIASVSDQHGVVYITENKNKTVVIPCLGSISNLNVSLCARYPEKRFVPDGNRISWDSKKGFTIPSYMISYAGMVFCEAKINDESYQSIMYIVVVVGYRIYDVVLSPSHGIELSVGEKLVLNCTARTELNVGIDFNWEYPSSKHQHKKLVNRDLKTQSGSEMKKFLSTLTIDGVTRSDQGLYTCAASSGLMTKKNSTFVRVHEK
T4 sequence (P35968 20-327 limits assumed): as above
Flt-1 receptor, sequence (P17948 27-331 limits assumed): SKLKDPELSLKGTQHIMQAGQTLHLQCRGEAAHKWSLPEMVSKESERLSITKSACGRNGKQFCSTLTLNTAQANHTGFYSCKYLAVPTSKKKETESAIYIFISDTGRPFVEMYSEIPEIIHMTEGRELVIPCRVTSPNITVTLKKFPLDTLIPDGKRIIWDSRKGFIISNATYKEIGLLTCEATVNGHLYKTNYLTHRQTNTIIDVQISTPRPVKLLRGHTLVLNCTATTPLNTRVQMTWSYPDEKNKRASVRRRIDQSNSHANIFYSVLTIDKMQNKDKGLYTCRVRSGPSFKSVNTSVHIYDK
T2 sequence (P17948 27-758 limits assumed): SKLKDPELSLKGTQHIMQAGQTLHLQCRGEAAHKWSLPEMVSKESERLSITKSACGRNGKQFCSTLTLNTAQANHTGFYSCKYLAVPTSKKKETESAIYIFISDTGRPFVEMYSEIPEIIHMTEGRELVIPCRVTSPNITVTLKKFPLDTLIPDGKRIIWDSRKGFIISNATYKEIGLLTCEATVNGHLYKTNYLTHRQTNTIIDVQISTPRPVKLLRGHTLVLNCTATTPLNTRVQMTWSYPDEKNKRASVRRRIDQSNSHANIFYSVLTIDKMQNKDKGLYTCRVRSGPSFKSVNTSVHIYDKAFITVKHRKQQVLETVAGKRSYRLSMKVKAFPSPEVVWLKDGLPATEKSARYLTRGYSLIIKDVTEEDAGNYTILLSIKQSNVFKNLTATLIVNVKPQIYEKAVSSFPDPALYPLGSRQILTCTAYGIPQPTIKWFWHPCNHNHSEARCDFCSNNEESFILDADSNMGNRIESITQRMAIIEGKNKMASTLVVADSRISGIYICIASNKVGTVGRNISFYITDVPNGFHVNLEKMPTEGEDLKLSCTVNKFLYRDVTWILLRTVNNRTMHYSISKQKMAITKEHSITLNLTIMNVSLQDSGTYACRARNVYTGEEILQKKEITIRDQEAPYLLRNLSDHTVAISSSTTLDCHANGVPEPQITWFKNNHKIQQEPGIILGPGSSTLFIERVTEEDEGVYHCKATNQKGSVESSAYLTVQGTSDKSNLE
T3 sequence (P17948 27-758 limits assumed): as above

B1: PlGF: VEGF-related molecule that binds Flt-1 but not KDR (R & D Systems) (protein)
chain: AVPPQQWALSAGNGSSEVEVVPFQEVWGRSYCRALERLVDVVSEYPSEVEHMFSPSCVSLLRCTGCCGDENLHCVPVETANVTMQLLKIRSGDRPSYVELTFSQHVRCECRPLREKMKPERCGDAVPRR
Turning to B1, the “induction of corneal angiogenesis” value in the test with corneal angiogenesis is on record as “only a marginal response”.

B2: Flt-sel (I43A/I46A/Q79A/I83A, 1-109 short form) (ligand, human, UniProt P15692-4 27-135, looked up)
chain: APMAEGGGQNHHEVVKFMDVYQRSYCHPIETLVDIFQEYPDEAEYAFKPSCVPLMRCGGCCNDEGLECVPTEESNITMAIMRAKPHQGQHIGEMSFLQHNKCECRPKKD
notes: also called Flt-1-sel; Flt-1 selective variant
Regarding B2, the “fold reduced KDR-binding affinity (against native VEGF (8-109))” value in test [1] was at least 470 fold.

B3: Flt-1 selective VEGF variant: Flt-1 selective variant comprising a full length 165 sequence with I43A/I46A/Q79A/I83A (protein)
chain: APMAEGGGQNHHEVVKFMDVYQRSYCHPIETLVDIFQEYPDEAEYAFKPSCVPLMRCGGCCNDEGLECVPTEESNITMAIMRAKPHQGQHIGEMSFLQHNKCECRPKKD
Take B3: the “induction of corneal angiogenesis” value with corneal angiogenesis was “unable to stimulate angiogenesis over control levels”. The “phosphorylation of ERK1 and ERK2” value in [2] is recorded as “barely detectable phosphorylation of ERK2”. Further, in the test with PLC-gamma in HUVEC cells, the PLC-gamma phosphorylation entry is reported as “did not increase PLC-gamma phosphorylation over background levels”. For the same molecule, the “promotion of HUVEC cell migration” value in the test on HUVEC cells was “unable to increase cell migration over background levels”.

B4: LK-VRB-1s* (ligand, human, UniProt P15692-4 27-135, looked up)
chain: APMAEGGGQNHHEVVKFEDVLRRSSCHPIETLVDIFQEYPDEIEYIFKPSCVPLMRCGGCCNDEGLECVPTEESNITMQIMRIKPHQGQHIGEMSFLQHNKCECRPKKD
B4: the “relative binding affinity (ratio to native VEGF (8-109))” value was 6000 ratio with Flt-IgG and 1 ratio with KDR (1-3). For the same molecule, in the test with Flt-1 receptor, the “Relative Binding Affinity, FLT-1 Receptor (RIA)” value is given as 14,000. The “relative binding affinity (ratio to native VEGF 165)” value turned out to be 20 ratio in test [3] and 14000 ratio in test [4]. In addition, in test [5], the “Endothelial Cell Proliferation Activity (HUVEC, 3H-thymidine)” value is 0.2 ratio to native VEGF (8-109). The “Phosphorylation-Inducing Activity (KIRA assay)” value in test [6] is 0.5 ratio to native VEGF (8-109). The “Relative Binding Affinity, KDR Receptor: ratio to native VEGF (8–109)” value with KDR receptor is recorded as 1 nM/1.

Source of the values: patent US7090834B1, “Vascular endothelial cell growth factor variants and uses thereof” (Genentech, Inc., priority 1999, dated 2006).
